Measured values: publication PMC3470933 (Molecular Microbiology, 2012)

T1: T. brucei pyridoxal kinase (TbPdxK) (Trypanosoma brucei, UniProt O15927)
T1 sequence (O15927 1-300): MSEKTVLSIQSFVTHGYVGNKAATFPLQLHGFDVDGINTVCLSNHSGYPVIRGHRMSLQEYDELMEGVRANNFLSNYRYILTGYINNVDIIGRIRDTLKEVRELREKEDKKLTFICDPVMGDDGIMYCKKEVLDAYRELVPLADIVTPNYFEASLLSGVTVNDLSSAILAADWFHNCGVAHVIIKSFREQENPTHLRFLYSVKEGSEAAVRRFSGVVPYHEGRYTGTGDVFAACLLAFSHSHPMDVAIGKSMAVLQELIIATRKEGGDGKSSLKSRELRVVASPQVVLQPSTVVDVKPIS

B1: T. brucei pyridoxal kinase (TbPdxK) (Trypanosoma brucei) (protein)
chain: MSEKTVLSIQSFVTHGYVGNKAATFPLQLHGFDVDGINTVCLSNHSGYPVIRGHRMSLQEYDELMEGVRANNFLSNYRYILTGYINNVDIIGRIRDTLKEVRELREKEDKKLTFICDPVMGDDGIMYCKKEVLDAYRELVPLADIVTPNYFEASLLSGVTVNDLSSAILAADWFHNCGVAHVIIKSFREQENPTHLRFLYSVKEGSEAAVRRFSGVVPYHEGRYTGTGDVFAACLLAFSHSHPMDVAIGKSMAVLQELIIATRKEGGDGKSSLKSRELRVVASPQVVLQPSTVVDVKPIS

How the values were obtained:
[1] = target: T1, T. brucei pyridoxal kinase (TbPdxK); assay: coupled PK/LDH assay; assay type: biochemical; conditions: read-out: Km^app
[2] = substrate: Cc1ncc(CO)c(C=O)c1O; assay: purified protein; assay type: biochemical, Trypanosoma brucei; conditions: ATP, Mg2+
[3] = substrate: Cc1ncc(CO)c(CN)c1O; assay: purified protein; assay type: biochemical, Trypanosoma brucei; conditions: ATP, Mg2+
[4] = substrate: Cc1ncc(CO)c(CO)c1O; assay: purified protein; assay type: biochemical, Trypanosoma brucei; conditions: ATP, Mg2+

Molecule | Km [1] | Km [2] | Km [3] | Km [4]
COCc1c(CO)cnc(C)c1O [GT, ginkgotoxin] | 46.6 ± 10.2 µM |  |  | 
B1 |  | 1.65 ± 0.14 µM | 59.4 ± 14.8 µM | 48.0 ± 12.7 µM
